Results on four molecules are retold here after patent publication US20220411531A1 (SUMGEN MAB BEIJING BIOTECH, published 2022).

Broadly, the EC50 is the concentration giving half of the maximal effect. A high value points to weaker potency.

Sequences and labels used below:
B1: antibody 6G12M31 (antibody, V domains shown)
VH: QVQLVQSGPGLVKPSQSLSLTCSVTGFSISSGYYWNWIRQFPGQKLEWMGYRSYDGSNNYDPSLKNRISITRDTSKNQFFLKLNSVTSEDTATYYCARGWLLHYTMDYWGQGTTVTVSS
VL: DIVMTQSPSSVSVTLGQSASISCRSSRSLLHSNGFTYLYWYLQKPGQSPQLLIYQMSNLASGVPDRFSGSGSGTDFTLKISRVEAEDVGVYYCGQNLELPLTFGGGTKLEIK
B2: antibody 6G12M11 (antibody, human IgG1, kappa, V domains shown)
VH: B1 VH with S23A, D61N
VL: EIVMTQSPSSVSVTLGQSASISCRSSRSLLHSNGFTYLYWYLQKPGQSPQLLIYQMSNLASGVPDRFSGSGSGTDFTLKISRVEAEDVGVYYCGQNLELPLTFGGGTKLEIKR
B3: antibody 6G12M21 (antibody, human IgG1, kappa, V domains shown)
VH: B1 VH with D61N
VL: B2 VL with E1D
B4: antibody 6G12M41 (antibody, V domains shown)
VH: B1 VH with D61G
VL: B1 VL

Where a chain is given by its changes, count along the chain named.

The first test has as its target T1, AXL-His (Sino Biological Inc., 6x His labels, molecular weight 47.5 Kda) (UniProt P30530-2 26-440, limits assumed).
T1 construct: Bought reagent; also called target antigen AXL-His; target antigen AXL; not shown: 6x His tag
T1 sequence (looked up): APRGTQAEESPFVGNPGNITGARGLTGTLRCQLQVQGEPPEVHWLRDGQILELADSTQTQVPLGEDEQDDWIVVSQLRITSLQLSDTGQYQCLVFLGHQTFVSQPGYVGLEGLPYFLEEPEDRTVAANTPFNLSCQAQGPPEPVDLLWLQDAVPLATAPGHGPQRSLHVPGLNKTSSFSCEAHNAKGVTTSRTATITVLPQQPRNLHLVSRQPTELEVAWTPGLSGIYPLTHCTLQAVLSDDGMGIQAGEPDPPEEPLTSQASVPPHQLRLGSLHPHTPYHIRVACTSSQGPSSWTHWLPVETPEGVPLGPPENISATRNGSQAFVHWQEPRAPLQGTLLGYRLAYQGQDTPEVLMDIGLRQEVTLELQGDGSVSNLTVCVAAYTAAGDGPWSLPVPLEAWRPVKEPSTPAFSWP
The test can be described thus: ELISA, AXL-His coated at 1 ug/ml. As for the experimental part:
A target antigen AXL-His (Sino Biological Inc.) was coated at 1 μg/ml on an ELISA strip, which was held at 4° C. overnight. After the ELISA strip was washed with PBST, 10% fetal bovine serum was added to the ELISA strip, which was blocked for 1 hour at 37° C. Different concentrations of antibodies 6G12M11, 6G12M21, 6G12M31 and 6G12M41 were added to react at 37° C. for 1 hour. After the ELISA strip was washed with PBST, a horseradish peroxidase-labeled goat anti-mouse secondary antibody (Goat Anti-mouse IgG HRP, Abcam) was added to react for 30 minutes at 37° C. The ELISA strip was washed 5 times with PBST, and patted and dried on absorbent paper to remove residual droplets as much as possible. 100 μl of TMB (eBioscience) was added to each well, and the ELISA strip was held for 1.5 min at room temperature (20±5° C.) in the dark. 100 μl of 2N H₂SO₄ stop solution was added to each well to terminate substrate reaction. The OD value was read at 450 nm by a microplate reader to analyze the binding ability of each antibody to the target antigen AXL. The amino acid sequence of the heavy chain of antibody 6G12M11 is as set forth in SEQ ID NO: 35, and the amino acid sequence of the light chain of the same is as set forth in SEQ ID NO: 36; the amino acid sequence of the heavy chain of antibody 6G12M21 is as set forth in SEQ ID NO: 37, and the amino acid sequence of the light chain of the same is as set forth in SEQ ID NO: 38; the VH of antibody 6G12M31 is as set forth in SEQ ID NO: 42, and the VL of the same is as set forth in SEQ ID NO: 6; and the VH of antibody 6G12M41 is as set forth in SEQ ID NO: 43, and the VL of the same is as set forth in SEQ ID NO: 6.
It can be seen that both antibodies 6G12M11 and 6G12M21 can specifically recognize the target antigen AXL.
(ELISA stands for enzyme-linked immunosorbent assay.)
In turn, B1 had a concentration giving a half-maximal response (EC50) of 0.0211 µg/mL.
The molecule B2 registered an EC50 of 0.027 µg/mL.
For the molecule B3, the concentration for a half-maximal effect (EC50) was determined as 0.0253 µg/mL.
For the molecule B4, the EC50 was found to be 0.0176 µg/mL.

A further test has as its target T2, TYRO3-Fc (ACRO Biosystems) (UniProt Q06418 41-428, limits assumed).
T2 construct: Bought reagent; also called TRYO3; not shown: Fc part
T2 sequence (looked up): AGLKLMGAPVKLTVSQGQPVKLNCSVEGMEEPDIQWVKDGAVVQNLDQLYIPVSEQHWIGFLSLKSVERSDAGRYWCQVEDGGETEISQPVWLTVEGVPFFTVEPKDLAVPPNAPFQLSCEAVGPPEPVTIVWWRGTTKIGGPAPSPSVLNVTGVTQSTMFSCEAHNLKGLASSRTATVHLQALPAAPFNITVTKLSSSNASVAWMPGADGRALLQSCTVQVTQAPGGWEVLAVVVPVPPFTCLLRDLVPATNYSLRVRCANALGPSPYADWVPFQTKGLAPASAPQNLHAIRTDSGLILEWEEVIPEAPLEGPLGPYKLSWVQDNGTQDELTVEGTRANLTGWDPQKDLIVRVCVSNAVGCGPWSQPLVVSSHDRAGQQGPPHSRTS
The test can be described thus: ELISA, TYRO3-Fc coated at 1 µg/ml, anti-human IgG Fab-HRP, OD450. As for the experimental part: AXL, TRYO3, and MER are all members of the TYRO3 receptor tyrosine kinase subfamily. To verify the recognition specificity of the antibodies 6G12M11, 6G12M21, 6G12M31 and 6G12M41, the binding ability of these antibodies to other members of the AXL family is tested by the ELISA method.
TYRO3-Fc (ACRO Biosystems), MER-His (ACRO Biosystems), and AXL-His (Sino Biological Inc.) each were coated at 1 μg/ml on an ELISA strip, which was held at 4° C. overnight. After the ELISA strips were washed with PBST, 10% fetal bovine serum was added to the ELISA strip, which was blocked for 1 hour at 37° C. Antibodies […], 6G12M21, 6G12M31 and 6G12M41 were added to react at 37° C. for 1 hour. After the ELISA strips were washed with PBST, horseradish peroxidase-labeled goat anti-human IgG Fab secondary antibodies (Goat Anti-Human IgG (Fab′)₂ (HRP), Abcam) were added to react for 30 minutes at 37° C. The ELISA strips were washed 5 times with PBST, and patted and dried on absorbent paper to remove residual droplets as much as possible. 100 μl of TMB (eBioscience, #85-00-420) was added to each well, and the ELISA strips were held for 1.5 min at room temperature (20±5° C.) in the dark. 100 μl of 2N H₂SO₄ stop solution was added to each well to terminate substrate reaction. The OD value was read at 450 nm by a microplate reader to analyze the binding ability of antibodies to the proteins.
Take B1: the binding result is on record as “no binding (tested: about 1 µg/mL)”.
The same measure, in the same setting: to B3 belongs “no binding (tested: about 1 µg/mL)”; to B4, “no binding (tested: about 1 µg/mL)”.
